# Laboratory results published in the supplement of paper PMC7877785.
# ± gives the uncertainty stated by the source.
# Experiment: self-splicing fitness, log relative to wild type (ln ratio); higher = more splicing; Tetrahymena group I intron in knt gene, E. coli kanamycin selection, DiMSum; sequences stand for … in CUCUCU…GGAGGGAAAAGUUAUCAGGCAUGCACCUGGUAGCUAGUCUUUAAACCAAUAGAUUGCAUCGGUUUAAAAGGCAAGACCGUCAAAUUGCGGGAAAGGGGUCAACAGCCGUUCAGUACCAAGUCUCAGGGGAAACUUUGAGAUGGCCUUGCAAAGGGUAUGGUAAUAAGCUGACGGACAUGGUCCUAACCACGCAGCCAAGUCCUAAGUCAACAGAUCUUCUGUUGAUAUGGAUGCAGUUCACAGACUAAAUGUCGGUCGGGGAAGAUGUAUUCUUCUCAUAAGAUAUAGUCGGACCUCUCCUUAAUGGGAGCUAGCGGAUGAAGUGAUGCAACACUGGAGCCGCUGGGAACUAAUUUGUAUGCGAAAGUAUAUUGAUUAGUUUUGGAGUACUCGUGGUCG
# Procedure, shortened: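 Pooled colonies went to amplicon sequencing on an Illumina HiSeq 2500 after six replicate transformations. The plates were LB agar with 100 μg/mL carbenicillin, 50 μM IPTG and 0.2% rhamnose, with or without 25 μg/mL kanamycin, incubated overnight at 37°C or 30°C. The E. coli BL21(DE3) library had all eight P1ex-region intron nucleotides randomised, the intron placed in the knt kanamycin-resistance gene on pET-22b(+). DiMSum fitness is the error-weighted combination of replicate fold changes, kanamycin against none, normalised to wild type.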
Sequence,self-splicing fitness (ln) (30 °C),self-splicing fitness (ln) (37 °C)
UACCAGCAAUAUUACGACAC,-2.34 ± 0.13,-1.16 ± 0.15
UAGGAGCAAUAUUACGCAUU,-3.91 ± 0.35,-2.42 ± 0.42
AACCAGCAAUAUUACGUUGU,-2.68 ± 0.077,-2.38 ± 0.1
CGGCAGCAAUAUUACGCAUA,-2.08 ± 0.21,-1.03 ± 0.13
AGAUAGCAAUAUUACGUGAC,-3.44 ± 0.23,-2.71 ± 0.48
GCUUAGCAAUAUUACGAUAA,-2.12 ± 0.13,-1.69 ± 0.12
AAAUAGCAAUAUUACGUUUA,-1.85 ± 0.15,-1.03 ± 0.13
AAUUAGCAAUAUUACGACGG,-0.969 ± 0.14,-0.972 ± 0.25
ACUAAGCAAUAUUACGGCAU,-0.539 ± 0.062,-0.563 ± 0.09
GCACAGCAAUAUUACGGUGA,-0.308 ± 0.07,-0.455 ± 0.079
UUCGAGCAAUAUUACGAUGC,-1.44 ± 0.4,–
GCUGAGCAAUAUUACGACAU,-2.265 ± 0.018,-1.08 ± 0.035
UUCGAGCAAUAUUACGCCGA,-2.65 ± 0.22,-2.66 ± 0.33
CACAAGCAAUAUUACGUGCC,-3.26 ± 0.14,-2.48 ± 0.14
UUGUAGCAAUAUUACGUCGA,-0.938 ± 0.088,-0.226 ± 0.11
UGGAAGCAAUAUUACGUAGU,-2.9 ± 0.27,-1.41 ± 0.2
GGCUAGCAAUAUUACGGCAC,0.203 ± 0.13,-0.036 ± 0.14
UCGCAGCAAUAUUACGACGG,-1.15 ± 0.069,-0.0065 ± 0.1
CACGAGCAAUAUUACGUACA,-3.75 ± 0.37,-2.49 ± 0.24
UCAGAGCAAUAUUACGGAUU,-3.58 ± 0.19,-2.68 ± 0.23
UAUUAGCAAUAUUACGCCCU,-1.3 ± 0.21,0.526 ± 0.2
CAUGAGCAAUAUUACGGGGA,-3.14 ± 0.19,-3.03 ± 0.22
AGACAGCAAUAUUACGGCAA,-1.37 ± 0.064,-0.634 ± 0.079
AUGCAGCAAUAUUACGUCGC,-3.69 ± 0.31,-2.57 ± 0.32
CAGAAGCAAUAUUACGUCAG,-1.15 ± 0.056,-0.204 ± 0.078

Sequence,self-splicing fitness (ln) (30 °C),self-splicing fitness (ln) (37 °C)
UAGAAGCAAUAUUACGUCUG,-1.12 ± 0.064,-0.959 ± 0.076
GGGCAGCAAUAUUACGCUGU,-2.65 ± 0.29,-1.21 ± 0.21
CUCGAGCAAUAUUACGCGCU,-3.66 ± 0.22,-2.69 ± 0.23
ACUAAGCAAUAUUACGGUAA,-1.56 ± 0.17,-1.92 ± 0.18
UCCGAGCAAUAUUACGGGAA,-3.05 ± 0.3,-1.65 ± 0.19
UGAUAGCAAUAUUACGAUCU,0.499 ± 0.12,0.105 ± 0.16
CUCAAGCAAUAUUACGCCUG,-4.22 ± 0.31,-2.52 ± 0.24
GACUAGCAAUAUUACGAGCC,-1.28 ± 0.17,-0.877 ± 0.26
UUAAAGCAAUAUUACGACGC,-0.776 ± 0.077,0.177 ± 0.11
GAGUAGCAAUAUUACGCUGG,-2.77 ± 0.29,-1.48 ± 0.25
CCGGAGCAAUAUUACGAGUC,-3.15 ± 0.26,-1.85 ± 0.28
ACGAAGCAAUAUUACGUCUA,-1.66 ± 0.071,-1.03 ± 0.061
CACUAGCAAUAUUACGAUCG,0.531 ± 0.067,0.717 ± 0.071
CGUAAGCAAUAUUACGAUAC,–,-2.9 ± 0.47
GUUUAGCAAUAUUACGCUAG,-2.38 ± 0.16,-0.42 ± 0.13
GGCUAGCAAUAUUACGGAGG,-3.21 ± 0.26,-1.58 ± 0.2
CAUUAGCAAUAUUACGAAGC,-2.81 ± 0.32,-2.44 ± 0.49
GCUUAGCAAUAUUACGAACG,-0.817 ± 0.099,0.062 ± 0.14
UGGGAGCAAUAUUACGCAAA,–,-2.43 ± 0.45
UGUUAGCAAUAUUACGUGAU,-1.77 ± 0.14,-1.96 ± 0.25
GUACAGCAAUAUUACGUGAC,-2.8 ± 0.18,-0.577 ± 0.16
AACAAGCAAUAUUACGGUUG,-2.83 ± 0.1,-1.64 ± 0.084
UGUCAGCAAUAUUACGUGAA,-0.122 ± 0.068,0.427 ± 0.083
UUAAAGCAAUAUUACGGUUU,-2.12 ± 0.075,-1.22 ± 0.097
AGCGAGCAAUAUUACGGUUU,-2.1 ± 0.18,-0.574 ± 0.15

Sequence,self-splicing fitness (ln) (30 °C),self-splicing fitness (ln) (37 °C)
AGCUAGCAAUAUUACGAAAA,-3.04 ± 0.38,-1.66 ± 0.23
UAUUAGCAAUAUUACGCCAA,-1.65 ± 0.2,-1.68 ± 0.23
UAACAGCAAUAUUACGUCCU,-0.956 ± 0.085,-0.192 ± 0.1
AUUAAGCAAUAUUACGUUAG,-2.76 ± 0.23,-3.12 ± 0.27
GAUGAGCAAUAUUACGCUCA,-1.18 ± 0.41,-0.934 ± 0.42
UCUUAGCAAUAUUACGGGUA,-1.46 ± 0.076,-0.741 ± 0.084
CCUCAGCAAUAUUACGAGGA,-2.54 ± 0.29,-1.09 ± 0.14
UGGUAGCAAUAUUACGUACG,-1.02 ± 0.19,-0.203 ± 0.23
GUAGAGCAAUAUUACGAUUG,-2.82 ± 0.16,-2.4 ± 0.2
UGGAAGCAAUAUUACGCAUU,-2.63 ± 0.27,–
UCGCAGCAAUAUUACGAUAU,-3.68 ± 0.3,-2.41 ± 0.27
CAUUAGCAAUAUUACGCGUA,-1.76 ± 0.22,-1.2 ± 0.18
AAGUAGCAAUAUUACGUAGA,-3.01 ± 0.18,-1.45 ± 0.21
UAUAAGCAAUAUUACGGGGC,-2.29 ± 0.45,–
CCGGAGCAAUAUUACGCUGG,-1.99 ± 0.21,–
AUCUAGCAAUAUUACGCAGA,-3.1 ± 0.49,-1.82 ± 0.23
UGUGAGCAAUAUUACGGCAG,-2.64 ± 0.27,-0.26 ± 0.28
AUCUAGCAAUAUUACGGCAA,-0.584 ± 0.14,-0.113 ± 0.14
AUUCAGCAAUAUUACGGACA,-0.904 ± 0.078,-0.744 ± 0.095
CCGAAGCAAUAUUACGAGGC,-4.67 ± 0.42,-3.39 ± 0.29
GUGAAGCAAUAUUACGAUUG,-1.38 ± 0.11,-1.78 ± 0.14
ACGGAGCAAUAUUACGGCAA,-2.98 ± 0.3,-2.61 ± 0.27
GAAUAGCAAUAUUACGGGCG,-1.16 ± 0.078,-0.509 ± 0.1
AGAUAGCAAUAUUACGAAUC,-1.46 ± 0.18,-1.06 ± 0.24
CCCAAGCAAUAUUACGCCAG,-2.9 ± 0.19,-3.07 ± 0.33

Sequence,self-splicing fitness (ln) (30 °C),self-splicing fitness (ln) (37 °C)
UCCCAGCAAUAUUACGCAUC,-4.39 ± 0.42,-1.85 ± 0.22
GUACAGCAAUAUUACGCAUA,-2.65 ± 0.15,-1.56 ± 0.11
GCCUAGCAAUAUUACGUGCC,-3.38 ± 0.23,-2.08 ± 0.23
ACGAAGCAAUAUUACGAAGG,-2.21 ± 0.17,-1.4 ± 0.15
GGGGAGCAAUAUUACGGACU,0.0915 ± 0.28,-0.621 ± 0.22
AGCCAGCAAUAUUACGUCGC,-3.44 ± 0.35,-2.74 ± 0.21
GAGAAGCAAUAUUACGUUGC,-3.47 ± 0.24,-3.31 ± 0.31
CGAUAGCAAUAUUACGAGCA,-3.83 ± 0.26,-1.86 ± 0.17
CAAGAGCAAUAUUACGUAAG,-0.178 ± 0.084,-0.217 ± 0.12
GUUGAGCAAUAUUACGCAGC,-2.23 ± 0.35,–
AUAUAGCAAUAUUACGCGAA,–,-1.32 ± 0.23
GGCUAGCAAUAUUACGUAUA,-1.27 ± 0.22,-0.659 ± 0.19
GGCCAGCAAUAUUACGUAUU,-2.14 ± 0.11,-0.199 ± 0.087
CCCGAGCAAUAUUACGGAUC,-3.92 ± 0.46,-2.06 ± 0.27
CGUUAGCAAUAUUACGGACC,-0.382 ± 0.14,0.675 ± 0.16
UGAAAGCAAUAUUACGAUGG,-1.59 ± 0.086,-0.618 ± 0.11
CGCGAGCAAUAUUACGCUCU,–,-0.833 ± 0.33
GCAUAGCAAUAUUACGAGCA,-1.39 ± 0.23,-0.718 ± 0.2
CCCUAGCAAUAUUACGAAAU,-2.88 ± 0.21,-2.59 ± 0.31
UGCAAGCAAUAUUACGGCAA,0.111 ± 0.12,-0.447 ± 0.12
AAACAGCAAUAUUACGGGGG,-3.28 ± 0.22,-2.52 ± 0.19
GAAGAGCAAUAUUACGCGAA,-3.32 ± 0.23,-2.94 ± 0.38
GAUAAGCAAUAUUACGAUUG,-2.59 ± 0.11,-1.82 ± 0.18
